“Also recorded” adds a separate entry of the source.
Columns and labels:
[1] = molecular target: biotinylated peptide antigen (AT1 receptor) (Rattus norvegicus, UniProt P25095); assay: Quartz crystal microbalance binding (Attana 100); conditions: 9 μg/ml, 100 second injection period; listed as 12D
Procedure: Data were obtained comparing the characteristics of binding of the scFv variants and IgM to immobilised peptide antigen using the Attana 100 Quartz Crystal Microbalance. This involved use of a streptavidin (0.1 mg/ml)-coated biotin “chip” (gold-plated quartz crystal in an Attana 100 Biosensor (Quartz crystal microbalance (QCM)) (Attana AB, Stockholm, Sweden). Peptide antigen corresponding to that sequence used to raise the original murine hybridoma, biotinylated at the C-terminus, was then run across the chip at a concentration of 4 μg/ml to create a binding target for scFvs and IgM that were subsequently run across the surface of the QCM chip. Attester software (Attana, Sweden) was used to monitor changes in resonance frequency of the QCM chip in response to binding of a test antibody to the antigen. The magnitude of deflection in Hz over the period of sample injection of 100 s in Hz/second was determined for each antibody at a concentration of 9 μg/ml. The rate at which the antibody was then released from the QCM chip was also measured in Hz/second from the straight-line portion of the biosensor trace as antibody gradually departed from the chip and as the resonance frequency of the chip decreased. Running buffer was PBS containing 0.005% Tween 20 (PBST) and this was also used to make antibody dilutions to give a final protein concentration of 9 μg/ml in each case. The Attana 100 was set up with a 50 μl injection loop and was running with a constant pump speed of 20 μl/min. Samples and PBST buffer controls were injected over 100 seconds giving a sample volume across the chip of 33 μl. 100 mM (6.6 μl volume) phosphoric acid solution was used to regenerate the strepavidin-antigen surface between individual experimental sample runs.

[2] = test system: T47D cells; assay: Apoptosis - caspase-3/7 activity; assay type: cell-based
Text: Cells were harvested using Trypsin/EDTA and counted.

[3] = test system: MDA-MB-231 cells; assay: Cell viability assay (XTT); assay type: cell-based; conditions: MDA-MB-231, 100 nmol angiotensin II per L, XTT, 48 hours
Procedure: (§1) MCF-7, T47D and MDA-MB-231 breast cancer cells were obtained from The American Tissue Culture Collection (LGC Promochem, Teddington, UK). Rat aortic smooth muscle cells (RASMC) were developed from primary culture (Barker et al., 1996). MCF-7 cells were maintained in Minimal Essential Medium (MEM), T47D and MDA-MB-231 cells in RPMI 1640 medium, and RASMC were maintained in Dulbecco's Modified Eagle's Medium (DMEM). All media were supplemented with 2 mM L-glutamine, 10% fetal bovine serum (FBS), 50 U/ml penicillin and 0.05 mg/ml streptomycin. Cells were maintained at 37° C. in a humidified atmosphere ([…], 5% CO2).
(§2) Confluent cell monolayers were removed from tissue culture flasks using trypsin/EDTA. Cells (15×10^3 per well) were seeded into 96 well tissue culture plates containing the appropriate medium for each cell line. […] Cell viability was assessed by the ability of metabolically active cells to reduce 2,3-bis[2-Methoxy-4-nitro-5-sulphophenyl]-2H-tetrazolium-5-carboxyanilide inner salt (XTT) to the coloured formazan product. Absorbance was measured using a Multiskan Ascent microplate reader (Thermo Labsystem, Helsinki, Finland) at a wavelength of 450 nm and a reference wavelength of 630 nm. Each measurement was performed in triplicate. IC50s were calculated using a non-linear regression formula using GraphPad Prism v4.0 software (GraphPad Software Inc, San Diego Calif., USA).

[4] = test system: T47D cells; assay: Cell viability assay (XTT); assay type: cell-based; conditions: 100 nmol angiotensin II per L, XTT, 48 hours
Procedure: as §1, §2

[5] = test system: MCF-7 cells; assay: Cell viability assay (XTT); assay type: cell-based; conditions: MCF-7, 100 nmol angiotensin II per L, XTT, 48 hours
Procedure: as §1, §2

[6] = test system: cancer cells in hollow fibers; assay: In vivo hollow fiber assay (summary statements); parameters: species or system nu/nu mice
Procedure: Hollow Fiber procedures followed the method of Hollingshead. (Hollingshead et al Life Sci 57 131-41 (1995)).
Cell-loaded hollow fiber segments were incubated at 37° C. in culture medium overnight before implantation into pure strain 5-6 week old female balb/c nu/nu mice. Fibers were implanted into the animals under anaesthesia (2% Isofluorane). Three 2 cm fibers, each containing one of the cell lines MCF-7, T47D, or MDA-MB-231, were implanted at both subcutaneous (s.c.) and intraperitoneal (i.p.) sites into each animal. For i.p. implants, a small incision was made through the skin and musculature of the ventral abdominal wall. Fibers were placed into the peritoneal cavity and both incisions were closed with metallic suture clips (Harvard Instruments, Edenbridge UK). For s.c. implants, a small incision was made dorsally. The fibers were implanted to the left of the dorsal midline in a cranial direction. The small incision was closed with metallic suture clips. […]
Cell viability was measured using a modified MTT assay. […] An aliquot (190 μl) from each well was transferred to a 96 well plate and absorbance read at 540 nm using a Multiskan Ascent photometric microplate reader (Thermo labsystem). Treated values were calculated as a percentage of the controls.

B1: R6313/G2: murine scFv analogue of the 6313/G2 anti-AT1 receptor monoclonal antibody variable domains, SEQ ID NO:15 (protein)
scFv: YAAQPAMAQVKLQQSGPELEKPGASVKISCKASGYSFTGYNMNWVKQSNGKSLEWIGNIDPYYGGTTYNQKFKGKATLTVDKSSSTAYMQLKSLTSEDSAVYYCAREVDYWGQGTTVTVSSGGGGSGGGGSGGGGSDIELTQSPASLAVSLGQRATISYRASKSVSTSGYSYMHWNQQKPGQPPRLLIYLVSNLESGVPARFSGSGSGTDFTLNIHPVEEEDAATYYCQHIRELTRSEGTKLEIKRAAAGAPVPY
modifications: 12D
[1]
  change in resonance frequency (apparent on-rate, Hz/second) compared with IgM: significantly greater increases in resonance frequency; also recorded: significantly greater changes in resonance frequency
[2]; 100 nmol/L angiotensin II, 12 hours
  effect on angiotensin II inhibition of caspase-3/7 activity: inhibition was blocked
[2]; R6313/G2 alone, 48 hours
  caspase-3/7 activity: dose-dependent increase of caspase-3/7 activity
[3]
  Threshold value for inhibition of cell survival (P<0.05 or better): 0.05 µM
[4]
  Threshold value for inhibition of cell survival (P<0.05 or better): 1.25 µM
[4]; read-out: IC50, inhibition of cell survival
  IC50: 2.8 µM
[5]
  Threshold value for inhibition of cell survival (P<0.05 or better): 0.05 µM
[6]; comparison of in vivo dose 25 nmol/Kg with in vitro
  in vitro concentration giving an anti-cancer cell effect equivalent to 25 nmol/Kg in vivo: 3.3 µmol/L
[6]; intact nu/nu mice bearing cancer cells in hollow fibers
  cancer cell growth in hollow fibers: significantly inhibited cancer cell growth
